Patent publication US20210252150A1

What was measured:
[1] = target: HA of A/Texas/36/1991 (H1N1) (influenza A virus (H1N1))
[2] = target: HA of A/Texas/50/2012 (H3N2) (influenza A virus (H3N2))
[3] = target: HA of A/Solomon Islands/03/2006 (H1N1) (influenza A virus (H1N1))

| Binder | EC50 [1] [µg/mL] | EC50 [2] [µg/mL] | EC50 [3] [µg/mL] |
| --- | --- | --- | --- |
| rFluA-20 heavy chain mutant Y34A (antibody, V domains shown) VH: QVQLQESGPGLVKPSETLSLTCSVSGVSVTSDIAYWTWIRQPPGKGLEWIGYIFYNGDTNYNPSLKSRVTMSIDTSKNEFSLRLTSVTAADTAVYFCARGTEDLGYCSSGSCPNHWGQGTLVTVSS VL: DIQMTQSPSSLSASIGDRVTITCRPSQNIRSFLNWFQHKPGKAPKLLIYAASNLQSGVPSRFSGSGSGTEFTLTIRSLQPEDFATYYCQQSYNTPPTFGQGTKVEIK | 0.05 | 0.16 | 0.04 |
| rFluA-20 heavy chain mutant T96A (antibody, V domains shown) VH: QVQLQESGPGLVKPSETLSLTCSVSGVSVTSDIYYWTWIRQPPGKGLEWIGYIFYNGDTNYNPSLKSRVTMSIDTSKNEFSLRLTSVTAADTAVYFCARGAEDLGYCSSGSCPNHWGQGTLVTVSS VL: DIQMTQSPSSLSASIGDRVTITCRPSQNIRSFLNWFQHKPGKAPKLLIYAASNLQSGVPSRFSGSGSGTEFTLTIRSLQPEDFATYYCQQSYNTPPTFGQGTKVEIK | 0.04 | 0.07 | 0.03 |
| rFluA-20 heavy chain mutant E97A (antibody, V domains shown) VH: QVQLQESGPGLVKPSETLSLTCSVSGVSVTSDIYYWTWIRQPPGKGLEWIGYIFYNGDTNYNPSLKSRVTMSIDTSKNEFSLRLTSVTAADTAVYFCARGTADLGYCSSGSCPNHWGQGTLVTVSS VL: DIQMTQSPSSLSASIGDRVTITCRPSQNIRSFLNWFQHKPGKAPKLLIYAASNLQSGVPSRFSGSGSGTEFTLTIRSLQPEDFATYYCQQSYNTPPTFGQGTKVEIK | 0.05 | 0.18 | 0.07 |
